Source: paper PMC4109901, “Functional EF-Hands in Neuronal Calcium Sensor GCAP2 Determine Its Phosphorylation State and Subcellular Distribution In Vivo, and Are Essential for Photoreceptor Cell Integrity” (PLoS Genetics, 2014)
Where a chain is given by its changes, count along the chain named.

B1: recombinant bGCAP2, mock-treated (unphosphorylated) (natural protein, bovine, UniProt P51177 1-204, looked up)
chain: MGQQFSWEEAEENGAVGAADAAQLQEWYKKFLEECPSGTLFMHEFKRFFKVPDNEEATQYVEAMFRAFDTNGDNTIDFLEYVAALNLVLRGTLEHKLKWTFKIYDKDRNGCIDRQELLDIVESIYKLKKACSVEVEAEQQGKLLTPEEVVDRIFLLVDENGDGQLSLNEFVEGARRDKWVMKMLQMDLNPSSWISQQRRKSAMF
notes: Cross-linked to magnetic beads for the pull-down; also called mock bGCAP2; recombinant wildtype bGCAP2
B2: recombinant bEF^−GCAP2, mock-treated (unphosphorylated) (natural protein, bovine, UniProt P51177 1-204, looked up)
chain: B1 chain with E80Q, E116Q, D158N
notes: Cross-linked to magnetic beads for the pull-down; also called mock bEF^−GCAP2; unphosphorylated bEF^−GCAP2
B3: recombinant phosphorylated bEF^−GCAP2 (natural protein, bovine, UniProt P51177 1-204, looked up)
chain: B1 chain with E80Q, E116Q, D158N
modifications: phosphorylated in vitro by PKG; Ser201 named as the site
notes: Cross-linked to magnetic beads for the pull-down
B4: recombinant phosphorylated bGCAP2 (natural protein, bovine, UniProt P51177 1-204, looked up)
chain: B1 chain
modifications: phosphorylated in vitro by PKG; Ser201 named as the site
notes: Cross-linked to magnetic beads for the pull-down; also called P-GCAP2

Biological target: the molecule itself
Assay: SDS-PAGE and immunoblot; in vitro phosphorylation reactions (with or without cGMP, in EGTA) of purified recombinant GCAP2 resolved by 15% SDS-PAGE and immunostained for GCAP2; bands above the 25 kDa monomer

| Protein | binding result |
| --- | --- |
| B1 | binds |
| B2 | binds |
| B3 | binds |
| B4 | binds |
